Measurements as given in PMC9482650, “Quantitative fragmentomics allow affinity mapping of interactomes” (Nature Communications, 2022).

T1: TJP3_3, O95049
T1 sequence (O95049 375-456, limits assumed, looked up): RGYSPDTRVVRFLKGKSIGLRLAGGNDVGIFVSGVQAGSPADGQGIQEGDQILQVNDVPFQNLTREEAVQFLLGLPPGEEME

T2: HTRA4, P83105
T2 sequence (P83105 378-476, limits assumed, looked up): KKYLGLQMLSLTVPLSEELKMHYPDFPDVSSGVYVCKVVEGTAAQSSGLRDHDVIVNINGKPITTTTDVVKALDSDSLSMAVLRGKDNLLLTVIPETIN

T3: NHERF3_1, Q5T2W1
T3 sequence (Q5T2W1 4-100, limits assumed, looked up): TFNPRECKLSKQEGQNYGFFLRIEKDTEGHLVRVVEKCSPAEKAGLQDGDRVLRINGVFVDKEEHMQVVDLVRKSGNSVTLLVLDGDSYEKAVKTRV

T4: PDZD2_2, O15018
T4 sequence (O15018 329-429, limits assumed, looked up): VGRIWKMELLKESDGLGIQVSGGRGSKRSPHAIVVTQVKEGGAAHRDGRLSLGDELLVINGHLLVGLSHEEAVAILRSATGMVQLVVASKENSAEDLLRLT

T5: DLG3_3, Q92796
T5 sequence (Q92796 374-475, limits assumed, looked up): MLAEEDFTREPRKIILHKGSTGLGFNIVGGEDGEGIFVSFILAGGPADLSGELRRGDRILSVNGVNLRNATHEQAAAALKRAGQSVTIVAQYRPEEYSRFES

T6: DFNB31_3, Q9P202
T6 sequence (Q9P202 811-907, limits assumed, looked up): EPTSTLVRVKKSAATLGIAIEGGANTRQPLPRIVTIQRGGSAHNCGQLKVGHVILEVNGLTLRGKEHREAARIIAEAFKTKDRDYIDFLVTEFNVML

T7: APBA2_1, Q99767
T7 sequence (Q99767 563-664, limits assumed, looked up): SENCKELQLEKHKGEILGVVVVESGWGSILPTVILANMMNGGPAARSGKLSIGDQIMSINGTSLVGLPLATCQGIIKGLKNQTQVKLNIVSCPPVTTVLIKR

T8: GRIP1_7, Q9Y3R0
T8 sequence (Q9Y3R0 999-1096, limits assumed, looked up): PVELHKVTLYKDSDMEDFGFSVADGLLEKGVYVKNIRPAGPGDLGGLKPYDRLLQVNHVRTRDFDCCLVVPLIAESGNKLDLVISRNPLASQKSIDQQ


Experiments:
Assay in all cases: holdup assay
Design in all cases: key: below the threshold = too weak to quantify, mostly under pKd 3.1 to 4
Settings in all cases: plain residues with an end cap or a label only (N-terminal biotin on a linker: ahx)
[1] = target: GOPC, Q9HD26
[2] = target: Inadl_2, Q8NI35
[3] = target: NHERF4_1, Q86UT5-2
[4] = target: T1, TJP3_3, O95049
[5] = target: DLG1_3, Q12959
[6] = target: DLG4_3, P78352
[7] = target: T2, HTRA4, P83105
[8] = target: Inadl_8, Q8NI35
[9] = target: DLG4_1, P78352
[10] = target: T3, NHERF3_1, Q5T2W1
[11] = target: GRIP2_3, Q9C0E4
[12] = target: LNX1_1, Q8TBB1
[13] = target: T4, PDZD2_2, O15018
[14] = target: GORASP2, Q9H8Y8
[15] = target: FRMPD2_1, Q68DX3
[16] = target: MAST2, Q6P0Q8
[17] = target: LNX1_3, Q8TBB1
[18] = target: T5, DLG3_3, Q92796
[19] = target: DLG4_2, P78352
[20] = target: DLG2_2, Q15700
[21] = target: NHERF4_4, Q86UT5
[22] = target: T6, DFNB31_3, Q9P202
[23] = target: T7, APBA2_1, Q99767
[24] = target: SCRIB_2, Q14160
[25] = target: MAGI2_5, Q86UL8
[26] = target: SCRIB_1, Q14160
[27] = target: T8, GRIP1_7, Q9Y3R0
[28] = target: SNX27, Q96L92
[29] = target: MAGI2_3, Q86UL8
[30] = target: FRMPD4, Q14CM0
[31] = target: LIMK2, P53671
Chain of LIMK2, P53671 (P53671 143-248): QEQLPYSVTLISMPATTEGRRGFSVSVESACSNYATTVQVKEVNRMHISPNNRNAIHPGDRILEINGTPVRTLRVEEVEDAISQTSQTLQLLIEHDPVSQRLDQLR

Chain of SCRIB_2, Q14160 (Q14160 857-960): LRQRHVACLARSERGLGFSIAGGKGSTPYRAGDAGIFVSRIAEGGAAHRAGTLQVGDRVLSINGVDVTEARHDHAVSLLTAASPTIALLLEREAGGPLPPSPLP
Chain of Inadl_2, Q8NI35 (Q8NI35 238-335): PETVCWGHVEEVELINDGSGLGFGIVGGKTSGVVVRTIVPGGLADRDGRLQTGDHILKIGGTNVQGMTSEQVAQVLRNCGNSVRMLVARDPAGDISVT
Chain of NHERF4_4, Q86UT5 (Q86UT5 464-550): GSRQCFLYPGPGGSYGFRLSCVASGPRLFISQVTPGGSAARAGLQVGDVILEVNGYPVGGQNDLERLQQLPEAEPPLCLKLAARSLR
Chain of FRMPD2_1, Q68DX3 (Q68DX3 770-861): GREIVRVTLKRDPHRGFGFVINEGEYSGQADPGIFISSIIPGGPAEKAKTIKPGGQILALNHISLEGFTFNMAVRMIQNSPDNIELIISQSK
Chain of MAGI2_5, Q86UL8 (Q86UL8 915-1017): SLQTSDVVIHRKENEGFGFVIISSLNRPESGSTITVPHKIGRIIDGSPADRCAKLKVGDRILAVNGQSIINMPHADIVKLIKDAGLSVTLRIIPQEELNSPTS
Chain of SCRIB_1, Q14160 (Q14160 718-814): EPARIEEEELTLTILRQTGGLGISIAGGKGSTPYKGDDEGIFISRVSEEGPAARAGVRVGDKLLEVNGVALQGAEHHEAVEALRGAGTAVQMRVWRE
Chain of Inadl_8, Q8NI35 (Q8NI35 1425-1530): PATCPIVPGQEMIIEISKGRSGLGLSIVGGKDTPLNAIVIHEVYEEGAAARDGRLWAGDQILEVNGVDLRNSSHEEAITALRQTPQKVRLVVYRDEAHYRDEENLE
Chain of DLG1_3, Q12959 (Q12959 457-571): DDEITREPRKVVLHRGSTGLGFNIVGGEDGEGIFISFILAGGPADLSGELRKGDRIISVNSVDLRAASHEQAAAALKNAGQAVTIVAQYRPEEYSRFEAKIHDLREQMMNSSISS
Chain of MAGI2_3, Q86UL8 (Q86UL8 600-682): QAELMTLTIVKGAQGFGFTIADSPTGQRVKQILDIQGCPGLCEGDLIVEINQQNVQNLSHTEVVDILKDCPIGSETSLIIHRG
Chain of DLG4_1, P78352 (P78352 62-152): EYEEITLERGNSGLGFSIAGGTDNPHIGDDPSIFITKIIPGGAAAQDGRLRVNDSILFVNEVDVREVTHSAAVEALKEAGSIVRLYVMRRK
Chain of GRIP2_3, Q9C0E4 (Q9C0E4 238-339): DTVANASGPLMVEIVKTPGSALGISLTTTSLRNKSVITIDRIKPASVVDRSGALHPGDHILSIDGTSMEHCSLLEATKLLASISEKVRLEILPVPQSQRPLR
Chain of DLG4_3, P78352 (P78352 306-403): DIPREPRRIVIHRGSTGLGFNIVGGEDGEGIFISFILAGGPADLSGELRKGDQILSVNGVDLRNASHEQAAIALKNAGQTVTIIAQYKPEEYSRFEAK
Chain of LNX1_3, Q8TBB1 (Q8TBB1 500-596): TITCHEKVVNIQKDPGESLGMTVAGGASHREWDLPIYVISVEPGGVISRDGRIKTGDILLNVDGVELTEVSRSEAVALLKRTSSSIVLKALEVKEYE
Chain of FRMPD4, Q14CM0 (Q14CM0 67-160): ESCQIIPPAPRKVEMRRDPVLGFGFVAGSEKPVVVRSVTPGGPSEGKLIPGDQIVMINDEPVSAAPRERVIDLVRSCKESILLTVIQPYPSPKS
Chain of MAST2, Q6P0Q8 (Q6P0Q8 1099-1202): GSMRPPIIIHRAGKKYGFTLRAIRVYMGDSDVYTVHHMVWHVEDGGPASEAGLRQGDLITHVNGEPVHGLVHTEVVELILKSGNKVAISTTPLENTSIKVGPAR
Chain of DLG4_2, P78352 (P78352 155-259): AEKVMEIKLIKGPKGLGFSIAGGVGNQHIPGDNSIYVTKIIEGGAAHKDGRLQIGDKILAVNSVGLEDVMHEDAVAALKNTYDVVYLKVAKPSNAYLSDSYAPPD
Chain of DLG2_2, Q15700 (Q15700 189-283): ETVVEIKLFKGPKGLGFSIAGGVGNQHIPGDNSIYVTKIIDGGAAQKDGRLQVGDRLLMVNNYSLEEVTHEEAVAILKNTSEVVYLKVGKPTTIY
Chain of NHERF4_1, Q86UT5-2 (Q86UT5 other isoform, or with tags, fused parts or gaps): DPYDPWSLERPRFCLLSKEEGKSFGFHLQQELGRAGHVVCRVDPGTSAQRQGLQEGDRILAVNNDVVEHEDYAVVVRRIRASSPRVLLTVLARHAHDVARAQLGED
Chain of LNX1_1, Q8TBB1 (Q8TBB1 261-371): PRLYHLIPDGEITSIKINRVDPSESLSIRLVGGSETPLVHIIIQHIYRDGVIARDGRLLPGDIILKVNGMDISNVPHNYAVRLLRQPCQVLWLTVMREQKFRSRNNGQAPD

| Binder | pKd [1] | pKd [2] | pKd [3] | pKd [4] | pKd [5] | pKd [6] | pKd [7] | pKd [8] | pKd [9] | pKd [10] | pKd [11] | pKd [12] | pKd [13] | pKd [14] | pKd [15] | pKd [16] | pKd [17] | pKd [18] | pKd [19] | pKd [20] | also measured |
| --- | --- | --- | --- | --- | --- | --- | --- | --- | --- | --- | --- | --- | --- | --- | --- | --- | --- | --- | --- | --- | --- |
| GIFPTLTSPL [SHROOM3, Q8TF72] | below the threshold | below the threshold | 4.15 | below the threshold | below the threshold | below the threshold | below the threshold | below the threshold | below the threshold | 4.2 | below the threshold | below the threshold | 3.48 | below the threshold | below the threshold | 4.25 | below the threshold | below the threshold | below the threshold | below the threshold | pKd [21]: below the threshold; pKd [22]: below the threshold; pKd [23]: below the threshold; pKd [24]: below the threshold; pKd [25]: below the threshold; pKd [26]: below the threshold; pKd [27]: below the threshold; pKd [28]: 3.91; pKd [29]: below the threshold; pKd [30]: below the threshold; pKd [31]: below the threshold |
| TIVSWPGTFL [LNX1, Q8TBB1] | 3.75 | below the threshold | 3.47 | below the threshold | below the threshold | below the threshold | 4 | below the threshold | below the threshold | 5.34 | below the threshold | 4.09 | 4.03 | below the threshold | below the threshold | 4.59 | below the threshold | below the threshold | below the threshold | below the threshold | pKd [21]: below the threshold; pKd [22]: below the threshold; pKd [23]: below the threshold; pKd [24]: below the threshold; pKd [25]: below the threshold; pKd [26]: below the threshold; pKd [27]: below the threshold; pKd [28]: 3.79; pKd [29]: below the threshold; pKd [30]: 3.73; pKd [31]: below the threshold |
